# Experimental data as given in patent US20200277335A1 (LARRK BIO, published 2020).
# How the values were obtained:
# [1] = target: chemokine receptor CCR8 (UniProt P51685); assay: cell-based or functional assay
# [2] = target: chemokine receptor CCR8 (UniProt P51685 1-355, limits assumed); assay: cell-based or functional assay
# Chain of chemokine receptor CCR8 (UniProt P51685 1-355, limits assumed) (P51685 whole entry): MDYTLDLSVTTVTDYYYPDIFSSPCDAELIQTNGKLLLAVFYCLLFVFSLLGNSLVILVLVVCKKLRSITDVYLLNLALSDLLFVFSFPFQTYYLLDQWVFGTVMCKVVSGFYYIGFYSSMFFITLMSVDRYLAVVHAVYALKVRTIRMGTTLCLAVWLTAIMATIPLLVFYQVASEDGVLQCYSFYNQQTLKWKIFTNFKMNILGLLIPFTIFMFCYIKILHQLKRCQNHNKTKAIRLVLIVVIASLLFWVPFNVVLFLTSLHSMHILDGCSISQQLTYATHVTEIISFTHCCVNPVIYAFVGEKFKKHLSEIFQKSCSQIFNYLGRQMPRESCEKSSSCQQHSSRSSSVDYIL
# Chain of chemokine receptor CCR8 (UniProt P51685) (P51685 whole entry): as above
Molecule,inhibition of 1-309 induced chemotaxis (IC50) [1],other results
MC148 fusion protein MC148p-TAT-6xHis,200 nM,–
recombinant MC148 protein (from UniProt Q98314 25-104) (ligand),–,inhibition of 1-309 induced chemotaxis of cells expressing CCR8 (IC50) [1]: 2 nM
synthetic MC148 protein (from UniProt Q98314 1-104) (ligand),> 15000 nM,–
VSLARRKCCL [peptide fragment VL-10],–,inhibition of 1-309 induced chemotaxis (IC50) [2]: > 15000 nM
